The text below walks through data of PMC10509167, “Identification and characterization of endo-α-, exo-α-, and exo-β-D-arabinofuranosidases degrading lipoarabinomannan and arabinogalactan of mycobacteria” (Nature Communications, 2023).

Substrate in data set [1]: O=[N+]([O-])c1ccc(O[C@H]2O[C@H](CO)[C@@H](O)[C@@H]2O)cc1
The data set is described as follows: purified protein. In kind it is biochemical, Microbacterium arabinogalactanolyticum. To be noted: 37 °C, 50 mM sodium acetate pH 5.5.

Substrate in data set [2]: O=[N+]([O-])c1ccc(O[C@@H]2O[C@H](CO)[C@@H](O)[C@@H]2O)cc1
The data set is described as follows: purified protein. In kind it is biochemical, Microbacterium arabinogalactanolyticum. To be noted: 37 °C, 50 mM sodium phosphate pH 6.0.

B1: ExoMA1 (MIAR_33200) (Microbacterium arabinogalactanolyticum) (protein)
chain: MPDLNSIAALRQVQTRSISPENFDGTAGGGGRATEGTGADCARDLGPGWKISPSVDIKAGETFELASIEGAGKITHIWITTHTDNWRTLILRAFWDGADEPAVEVPYGDFFCNGWGVFAQVNSQAIAANPHGGFNSYWPMPFRDGARLTIENTSVVDVRVYYQVTYEIGGDHSNDAYFHAQWRRSNPLEELTPHVILEGIEGEGHYVGTYIAWGVNSNGWWGEGEIKFYLDDDTDHPTICGTGTEDYFGGAWNFDIPGKGYTEFSTPYLGMPQVIRPDGLYVSQQRFGMYRWHLQDPIHFATGIPKVDIQALGWRSGWRYLPLRDDIASTAMFYLDRPTARRPKSPSADDMEVHLGTAPVPDLGATPPRV
notes: dodecamer
The term Km denotes the substrate concentration at which the rate is half of its maximum. In general, kcat refers to the maximal rate divided by the concentration of active sites. As to B1, in “purified protein [1]”, the Km came out at 2550 µM and the turnover number (kcat) is 44.4 s⁻¹.

B2: ExoMA2 (MIAR_33170) (Microbacterium arabinogalactanolyticum) (protein)
chain: SRRARRIPHTAESVAFPLGGIGTGNVSLGARGELRDWEFENLPDKGRLNPRSFFAIHAAPQGGPSATRVLEARSSGRHDRDAGYGFDELAGLPRLDSAGLHGEYPVVDIDFTDATLPVTVSLHAFTPLVPLDADASGIPAAVLRYRVVNPGDAPVTVTVVGSMSHTAGRGAPGPDAPWGMRGTQSVRWRESDGIRGLDFDIDLDHDDPGYGTMSLTTTDSSTTVKPQWVTSYWPDGARLFWNDLADDGLLAPEARLTLEDKPRGLFAERDADPDAPALTEEQMLAKLPRVRTGSLGIVHTLAPGEERDFEFVLAWSFPNRRRGWHGHIIFDDALEDGAPDLRDELGPIVRNHYAVRWPDAWAAAAQLHRDLPALEGATDAFVEELYGGSLDPVLADAVGANIAALRSTTCFVLESPTPELGDGPVFAAWEGSFDHGGSCEGTCTHVWSYAQTAAWLFPGLERSARRAEYLLETDESGAQKFRGNRIFGAPRWFIGPAVDGQLGTFLRLHREWRFCGDDEFLRELWPAAARTLDYAAREWDHDGDGLLDGEMHNTYDIEFHGVEPLSNIIHLAALRAGVRMAGHLGDTARAQEWALRADHVAAAIEGVLWNGEYYRQVIDDVDAHRYQYGDGVLSDQLLGQFHAFLGGLGYLLPEAHVRSALDAIVQHNHRGDLRDHESTQRVYALNDEGGLLLASWPEGGRPALPFVYADEVWTGIEHQVAVSLLFAGRYDDALRIERTLRARYDGAHRSPWNEIECGNHYARSLASWGLLIGASGAQWDAGARTLSFDPVLPGDARFLFTTATGWGGVEIGDDVITLRLHGGALDLDELRLRGEVAGRGIHLDAGETRTLTLT
notes: dimer
For the protein B2, in “purified protein [2]”, the Michaelis-Menten constant (Km) is 2730 µM and the kcat amounted to 12.0 s⁻¹.
